For assay [1], the target named is T1, human CD3 expressed on cells (human, UniProt P07766 23-207; P04234 22-171; P09693 23-182).
T1 construct: whole, on cells; CD3 complex on Jurkat cells and on human primary T cells
Nature of the assay: flow cytometry, 25 nM. On the procedure:
(§1) Purified antibodies were confirmed to bind CD3 expressed on cells using the CytoFLEX S or LX flow cytometers (Beckman Coulter). Antibodies were diluted to 25 nM in FACS buffer (PBS+2% FBS) and were incubated with CD3-expressing cells for 30 minutes at 4° C. […] The median fluorescence intensity of the binding signal for each antibody was normalized to the isotype control to obtain a fold over isotype value. An antibody with a fold over isotype (FOI) of ≥10 was considered to be positive for binding.
(In general: A flow cytometer gives signals particle by particle.)

The target of assay [2] is T2, cynomolgus monkey CD3 expressed on primary T cells (cynomolgus monkey, UniProt Q95LI5 22-198; Q95LI8 22-171; Q95LI7 23-181).
T2 construct: whole, on cells; CD3 complex on purified cynomolgus monkey T cells; also called cyno CD3
T2 sequence (Q95LI5 22-198, chain 1 of 3): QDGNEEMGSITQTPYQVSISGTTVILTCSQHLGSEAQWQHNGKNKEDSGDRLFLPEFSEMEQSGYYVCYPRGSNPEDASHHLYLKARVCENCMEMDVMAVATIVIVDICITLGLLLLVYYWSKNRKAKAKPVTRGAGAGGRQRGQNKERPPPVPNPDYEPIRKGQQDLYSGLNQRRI
T2 sequence (Q95LI8 22-171, chain 2 of 3): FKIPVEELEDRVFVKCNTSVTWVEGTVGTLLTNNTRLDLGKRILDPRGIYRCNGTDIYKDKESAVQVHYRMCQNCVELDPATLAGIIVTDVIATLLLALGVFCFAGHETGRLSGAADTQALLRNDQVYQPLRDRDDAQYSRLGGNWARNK
T2 sequence (Q95LI7 23-181, chain 3 of 3): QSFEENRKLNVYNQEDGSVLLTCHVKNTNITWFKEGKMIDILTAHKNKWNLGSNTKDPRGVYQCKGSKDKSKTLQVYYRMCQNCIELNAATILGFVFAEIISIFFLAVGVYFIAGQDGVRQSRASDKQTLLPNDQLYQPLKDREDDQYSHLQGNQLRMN
Nature of the assay: flow cytometry, 25 nM, cyno primary T cells. The protocol: as §1

T1 sequence (P07766 23-207, chain 1 of 3): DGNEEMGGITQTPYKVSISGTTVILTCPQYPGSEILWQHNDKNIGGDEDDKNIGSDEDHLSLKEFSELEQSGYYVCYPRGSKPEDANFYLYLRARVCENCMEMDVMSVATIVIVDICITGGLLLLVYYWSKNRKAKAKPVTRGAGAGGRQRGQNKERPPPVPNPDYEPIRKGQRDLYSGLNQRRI
T1 sequence (P04234 22-171, chain 2 of 3): as the sequence (Q95LI8 22-171, chain 2 of 3) above, with V5I, K15N, V20I, T32S, N33D, N34I, A64T, N74S, L83V, R141H counted along it
T1 sequence (P09693 23-182, chain 3 of 3): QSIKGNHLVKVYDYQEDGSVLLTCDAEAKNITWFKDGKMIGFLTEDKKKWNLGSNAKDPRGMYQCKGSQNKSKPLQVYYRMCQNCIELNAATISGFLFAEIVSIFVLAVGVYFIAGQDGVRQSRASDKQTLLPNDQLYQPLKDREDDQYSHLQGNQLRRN

B1: mAb 86 (antibody, V domains shown)
VH: QVQLAESGGGVVQPGRSLRLSCEASGFTFSGYGMHWVRQAPGKGLDWVAIIYYDGKNKYYADSVKGRFTISRDNSKNTLYLQMNSLRAEDTAVYYCARGGGYNWFDPWGQGTLVTVSS
VL: DIQMTQSPSSLSASVGDRVTITCRPSQTISKYLNWYQQKPGKAPKLLIYAASSLQSGVPSRFSGSGSGTDFTLTISSLQPEDFATYYCQQSYITPITFGRGTRLEIK
In the case of B1, in assay [1], the “Human primary T Cell Binding (FOI)” value came out at 189 FOI and the “Jurkat Cell Binding (FOI)” value worked out at 175 FOI. Besides, the binding result in assay [2] was “no binding (tested: FOI >=10 = positive)”.

B2: mAb 95 (antibody, V domains shown)
VH: QAHLVESGGGVVQPGRSLRLSCSASGFTFSGYGMHWVRQAPGKGLEWVALIYFDGRNKYYADSVKGRFTISRDNSKNTLYLQMNSLRAEDTAVYYCARGGGYNWFDPWGQGTLVTVSS
VL: DIQMTQSPSSLSASVGDRVTITCRASQSINNYLSWYQQKPGKAPKLLIYLASNLQSGVPSRFSGSGSGTDFTLTISSLQPEDFATYYCQLSYRSPFTFGPGTKVDVK
With B2, in assay [1], the “Human primary T Cell Binding (FOI)” value turned out to be 206 FOI and the “Jurkat Cell Binding (FOI)” value turned out to be 177 FOI. For the same molecule, the binding result in assay [2] is listed as “no binding (tested: FOI >=10 = positive)”.

B3: mAb 99 (antibody, V domains shown)
VH: QGQLVESGGGVVQPGRSLRLSCAASGFTFRGFGMHWVRQAPGKGLEWVAIIYYDGKNKYYADSVKGRFTISRDNSKNTLYLQMNSLRAEDTAVYYCAKGGGYNWFDPWGQGTLVTVSS
VL: DIQMTQSPSSLSASVGDRVTITCRASQSISTYLNWYQQKPGKAPKLLIYSASSLQSGVPSRFSGSGSGTDFTLTISNLQPEDFAIYYCQRSYSPPFTFGPGTKLDIR
On to B3, for which, in assay [1], the “Human primary T Cell Binding (FOI)” value stood at 218 FOI and the “Jurkat Cell Binding (FOI)” value is 198 FOI. For the same molecule, the binding result in assay [2] was “no binding (tested: FOI >=10 = positive)”.

B4: mAb 93 (antibody, V domains shown)
VH: QVQLVESGGGVVQPGRSLRLSCAASGFTFRGYGMHWVRQAPGKGLEWVAIIYYNGNNKYYADSVKGRFTISRDNSKNTLYLQMNSLRAEDTAVYYCARGGGYNWFDPWGQGTLVTVSS
VL: DIQMTQSPSSLSASVGDRVTITCRASQSISNYLNWYQQEPGKAPKLLIYTASSLQSGVPSRFSGSGSGTAFTLTISSLQPEDFAIYYCQRSSSPPFTFGPGTKLDIK
Consider B4, for which, in assay [1], the “Human primary T Cell Binding (FOI)” value was found to be 198 FOI and the “Jurkat Cell Binding (FOI)” value came out at 175 FOI. Moreover, in assay [2], the binding result is reported as “no binding (tested: FOI >=10 = positive)”.

B5: mAb 101 (antibody, V domains shown)
VH: QGQLVESGGGVVQPGRSLRLSCAASGFTFRGFGMHWVRQAPGKGLEWVAIIYYDGKNKYYADSVKGRFTISRDNSKNMLYLQMNSLRAEDTAVYYCAKGGGYNWFDPWGQGTLVTVSS
VL: DIQMTQSPSSLSASVGDRVTITCRASQSISTYLNWYQQKPGKAPKLLIYSASSLQSGVPSRFSGSGSGTDFTLTISNLQPEDFAIYYCQRSYSPPFTFGPGTKLDIR
With B5, in assay [1], the “Human primary T Cell Binding (FOI)” value turned out to be 233 FOI and the “Jurkat Cell Binding (FOI)” value came out at 216 FOI. In addition, in assay [2], the binding result is “no binding (tested: FOI >=10 = positive)”.

B6: mAb 100 (antibody, V domains shown)
VH: QVQLVESGGGVVQPGRSLRLSCVASGFTFRGYGMHWVRQAPGKGLEWVAIIYYDGKNKYYADSVKGRFTISRDNSKNTLYLQMNSLRVEDTALYYCARGGGYNWFDPWGQGTLVTVSS
VL: DIQMTQSPSSLSASVGDRVTITCRASQSISTYLNWYQQKPGKAPKLLIYTASSLQSGVPSRFSGSGSGTVFTLTISSLQPEDFAIYYCQRSYSPPFTFGPGTRLDIK
Take B6: in assay [1], the “Human primary T Cell Binding (FOI)” value worked out at 229 FOI and the “Jurkat Cell Binding (FOI)” value amounted to 241 FOI. For the same molecule, in assay [2], the binding result is on record as “no binding (tested: FOI >=10 = positive)”.

B7: mAb 97 (antibody, V domains shown)
VH: QGQLVESGGGVVQPGRSLRLSCAASGFTFRGYGMHWVRQAPGKGLEWVAIIYYDGKNKYYADSVKGRFTISRDNSKNTLYLQMNNLRVEDTAVYYCARGGGYNWFDPWGQGTLVTVSS
VL: DIQMTQSPSSLSASIGDRVTITCRASQSISNYLNWYQQKPGKAPKLLIYSASSLQSGVPSRFSGSGSGTDFTLTISNLQPEDFAIYYCQRSYSPPFTFGPGTKLDIR
For B7, in assay [1], the “Human primary T Cell Binding (FOI)” value worked out at 211 FOI and the “Jurkat Cell Binding (FOI)” value worked out at 192 FOI. In addition, the binding result in assay [2] was “no binding (tested: FOI >=10 = positive)”.

B8: mAb 67 (antibody, V domains shown)
VH: EVQLVESGGDLVQPGRSLRLSCAASGFTFDDCVIHWVRQAPGKGLEWVSGITWNSGRIGYADSVKGRFTISRDNAKNSLYLQMNSLRVEDTALYYCAKEGNYDFWSTYYRGYFDLWGRGTLVTVSS
VL: DIQMTQSPSSLSASVGDRVTITCRASQGIRNDLGWYQQKPGIAPKRLIYAASSLQGGVPLRFSGSGSGTEFTLTISSLQPEDFATYYCLQHNSYPYTFGQGTKLEIK
Take B8: in assay [1], the “Human primary T Cell Binding (FOI)” value is 72.4 FOI and the “Jurkat Cell Binding (FOI)” value was 70.2 FOI. Besides, in assay [2], the binding result is reported as “no binding (tested: FOI >=10 = positive)”.

B9: mAb 71 (antibody, V domains shown)
VH: QVQLVQSGAEVRKPGASVKVSCKASGYTFTKYDVNWVRQAPGQGLEWMGWMNSNNGNIGYAQKFQGRVTMTRKTSISTAYMELSSLRSEDTAVYYCAREGHYDFWRGFYNFDYWGQGTLVTVSS
VL: DIQMTQSPSSLSASVGDRVTITCRASQDIKNDLGWYQQKPGKAPKRLIYAASSLQSGVPSRFSGSGSGTEFTLTISSLQPEDFATYYCLQHNFYPITFGQGTRLEIK
For B9, in assay [1], the “Human primary T Cell Binding (FOI)” value was 108 FOI and the “Jurkat Cell Binding (FOI)” value was 100 FOI. Also, the binding result in assay [2] is reported as “no binding (tested: FOI >=10 = positive)”.

B10: mAb 74 (antibody, V domains shown)
VH: EVQLVESGGGLVQPGRSLRLSCAASGFTFADYVMHWVRQAPGKGLEWVSGINWNNARIGYVGSVKGRFTISRDNAKNSLYLQMTSLRVEDTALYHCVREGNFDFWSAYYRGFLDLWGRGTLVTVSS
VL: DIQMTQSPSSLSASVGDRVTITCRASQGIRSDLGWYQQKPGKAPKRLIYGASSLQGGVPSRFSGSGSGTEFTLTISSLQPEDFATYYCLQHNSYPYTFGQGTKLEIK
As to B10, in assay [1], the “Human primary T Cell Binding (FOI)” value amounted to 146 FOI and the “Jurkat Cell Binding (FOI)” value was 151 FOI. Also, the binding result in assay [2] is listed as “no binding (tested: FOI >=10 = positive)”.

B11: mAb 73 (antibody, V domains shown)
VH: EVELVESGGGLVQPGRSLRLSCAASGFTFDDKVMHWVRQAPGKGLEWVSCINWNSGHIGYADSVKGRFTISRDNARTSLYLQMNSLRPEDTALYYCVREGNYDFWSGYYRGFFDLWGRGTLVTVSS
VL: DIQMTQSPSSLSASVGDRVTITCRASQGIRNDLGWYQQKPGKAPKRLIYAASSLQGGVPSRFSGSGSGTEFTLTISSLQPEDFATYYCLQHTSYPFTFGQGTKLEIK
With B11, in assay [1], the “Human primary T Cell Binding (FOI)” value stood at 74.5 FOI and the “Jurkat Cell Binding (FOI)” value amounted to 109 FOI. The binding result in assay [2] is “no binding (tested: FOI >=10 = positive)”.

B12: mAb 85 (antibody, V domains shown)
VH: QVQLVQSGAEVKKPGASVKVSCKASGYTVTGYYMHWVRQAPGQGLEWMGWINPNSGGTNFAQNFQGRVTMTRDTSISTFYMDLNRLRSDDTAVYYCARGGAPVSYWFFDLWGRGTLVTVSS
VL: DIQMTQSPSSLSASVGDRVTITCRASQSISRYLNWYQQKPGKAPKVLIYNTSSLKSGVPSRFSGSGSGTDFTLTISSLQPEDFGTFYCQQSHSTPFTFGPGTKVDIK
With B12, in assay [1], the “Human primary T Cell Binding (FOI)” value came out at 195 FOI and the “Jurkat Cell Binding (FOI)” value was 181 FOI. In addition, in assay [2], the binding result was “no binding (tested: FOI >=10 = positive)”.

B13: mAb 66 (antibody, V domains shown)
VH: QVQLVQSGAEVKKPGASVKVSCKASGYTVTGYYMHWVRQAPGQGLEWMGWINPNSGGTNFAQNFQGRVTMTRDTSISTFYMDLSRLRSDDTAVYYCARGGAPVSYWFFDLWGRGTLVTVSS
VL: DIQMTQSPSSLSASVGDRVTITCRASQSISRYLNWYQQKPGKAPKVLIYNTSSLKSGVPSRFSGSGSGTDFTLTISSLQPEDFATLYCQQSHSTPFTFGPGTKVDIK
On to B13, for which, in assay [1], the “Human primary T Cell Binding (FOI)” value turned out to be 192 FOI and the “Jurkat Cell Binding (FOI)” value was determined as 172 FOI. Moreover, in assay [2], the binding result is given as “no binding (tested: FOI >=10 = positive)”.

B14: mAb 79 (antibody, V domains shown)
VH: QVQLVQSGAEVKKPGASVKVSCKASGYIVTGYYMHWVRQAPGHGLEWMGWINPNSGGTNFAQNFQGRVTMTRDTSISTFYMDLNRLTSDDTAVYYCARGGAPVSYWFFDLWGRGTLVTVSS
VL: DIQMTQSPSSLSASVGDRVTITCRASQNINSYLNWYHQKPGKAPKVLIYNTSTLKSGVPSRFSGSGSGTYFTLTISSLQPEDFATFYCQQSHSTPFTFGPGTKVDIK
B14: in assay [1], the “Human primary T Cell Binding (FOI)” value amounted to 199 FOI and the “Jurkat Cell Binding (FOI)” value was determined as 171 FOI. Further, in assay [2], the binding result was “no binding (tested: FOI >=10 = positive)”.

B15: mAb 72 (antibody, V domains shown)
VH: EVQLVDSGGGLVQPGGSLRLSCAASGFTFSSYWMSWVRQAPGKGLEWVANIKQDGSEKYYVDSVKGRFTISRDNVKNSLSLEMNSLRAEDTALYYCARDESSSWYWYFDLWGRGTLVTVSS
VL: DIQMTQSPSTLSASVGDRVTITCRASQSISKWLAWYQQKPGKAPKLLIYKASSLENGVPSRFSGSGSGTEFTLTISSLQPDDFATYYCQQYSSYSRTFGQGTKVEIK
With B15, in assay [1], the “Human primary T Cell Binding (FOI)” value was 91.4 FOI and the “Jurkat Cell Binding (FOI)” value stood at 98.7 FOI. The binding result in assay [2] is on record as “no binding (tested: FOI >=10 = positive)”.
